Experimental data: patent US20160046680A1, “RADIOTRACER IMAGING USING SODIUM IODIDE SYMPORTER POLYPEPTIDES” (MAYO FOUNDATION FOR MEDICAL EDUCATION AND RESEARCH, priority 2013, published 2016)
Numbering of substitutions follows the chain as printed. Names may count otherwise. “Also recorded” adds a separate entry of the source.

What was measured:
[1] = test system: stomach signal from NIS polypeptide-mediated uptake of radioisotopes; settings: mouse fed by gavage, then imaged; NIS transduced liver
Excerpt: FIG. 2B is a photograph of the same mouse fed oral contrast agent.

[2] = test system: endogenous NIS expressing organs (thyroid and stomach) and heterologous NIS expressing tumor cells; assay: Dual isotope SPECT/CT imaging of nude mice with BXPC-3-hNIS tumors; settings: four hours after i.p. administration of 250 μCi each
Method: FIG. 6. SPECT/CT dual isotope imaging of nude mice implanted with SQ BXPX-3-hNIS tumors. Animals were injected i.p with 250 μCi ^125I and 250 μCi ^99mTc and imaged four hours later. Images were processed using Vivo Quant software. The scale was adjusted manually to get minimal yellow in the tissues.
The stomach and thyroid signals were subtract from the SPECT dataset (FIG. 5). In this experiment, nude female mice (5-week of age) were injected with 3×10^6 BXPC-3-hNIS cells. When tumors reached a diameter of 1 cm, mice were injected I.P. with ^125I sodium iodide (250 μCi) and/or ^99mTc-pertechneate (250 μCi). Four hours post isotope administration, SPECT/CT data were acquired with U-SPECT-II (MiLabs). […] Radioiodide thyroid signal subtraction was performed by normalizing the ^125I SPECT data to thyroid tissue on the ^99mTc SPECT data using the image arithmetic tools available in PMOD image fusion software. This was performed in three steps by (1) calculating the normalization factor (i.e., the inverse ratio between the maximum voxel value corresponding to the thyroid tissue on the ^125I SPECT and the maximum voxel value corresponding to the thyroid tissue on the ^99mTc SPECT data set), (2) multiplying each voxel in the ^125I SPECT dataset by this normalization factor, and (3) subtracting the normalized ^125I SPECT dataset from ^99mTc SPECT data set to generate a thyroid subtraction SPECT dataset (FIG. 5C). Similarly, ^99mTc stomach signal subtraction was performed by (1) calculating the normalization factor which in this case is the inverse ratio of the maximum voxel value corresponding to the stomach tissue on the ^99mTc SPECT to the maximum voxel value corresponding to the stomach tissue in the ^125I SPECT data set, (2) multiplying each voxel in the ^99mTc SPECT dataset by this normalization factor, and (3) subtracting the normalized ^99mTc SPECT dataset from ^125I SPECT data set to generate a stomach subtraction SPECT dataset (FIG. 5B).

NIS expressing cells = settings: cited from earlier work
Mel624 cells = assay: Radiotracer uptake assay in Mel624 cells stably expressing NIS polypeptides; assay type: cell-based; settings: for Uptake of pertechnetate (Technetium-99m) / Uptake of radioiodide (Iodine-125): Mel624 cells expressing the NIS polypeptide, 1 hour at 37° C., +/- 300 μM KClO4
Method: Mel624 cells stably expressing a wild-type human NIS polypeptide (Mel-NIS) or one of two mutant NIS polypeptides (Mel-NIS-93E or Mel-NIS-93Q) were plated in 96-well plates at a density that would lead them to confluency on the day of the uptake assay. 1×Hank's balanced salt solution with calcium, magnesium (HBSS) (Cellgro) and 1 mM HEPES was adjusted to pH 7.3 using KOH (HBBS-HEPES) on the day of the assay. Culture medium was removed from the cells, and 150 μL of HBSS-HEPES+/−300 μM KClO4 was added to the wells. The cells were incubated for 10 minutes at room temperature prior to the addition of radiotracer. Radiotracers, ^125I and ^99mTc, were diluted in HBSS-HEPES to about 70,000 to 100,000 CPM/25 μL (CPM, counts per minute). 25 μL of radiotracer was added to the cells in HBSS-HEPES+/−KClO4, and the cells were incubated at 37° C. for 1 hour. The cells were then washed twice with cold HBSS-HEPES buffer and lysed to release the intracellular radiotracer by adding 200 μL 1M NaOH. Lysates were transferred to strip tubes and quantified using a gamma counter.

Hela-YFP-IS cells = assay: Non-radioactive YFP-H148Q/I152L in vitro uptake assay; assay type: cell-based
Excerpt: FIG. 11 contains graphs plotting the relative fluorescence Hela-YFP-IS cells expressing no NIS (i) or the indicated mutant NIS (ii-viii) after treatment with I^−, ReO4^−, BF4^−, and ClO4^−. These graphs show the concentration dependence of I^−, ReO4^−, BF4^−, and ClO4^− induced changes in YFP-H148Q/I152L fluorescence in Hela-YFP-IS cells expressing the indicated NIS mutants.
Using an anti-HA-tag-Alexa-Fluor-647 monoclonal antibody, cells expressing the NIS mutants on the cell surface were labeled and quantified using flow cytometry. […] A non-radioactive YFP-H148Q/I152L in vitro uptake assay was used to monitor uptake of NIS substrates: […], […], BF4^−, and ClO4^−. The NIS mutants were co-expressed with YFP-H148Q/I152L, which decreased in fluorescence following an interaction with halides. […] This was particularly so at the lowest substrate concentrations, which are of clinical relevance as radiotracers used for imaging are administered to animals and humans in trace amounts. At 1-5 μM concentrations of substrate, NIS-Q72N transported less iodide but more ClO4^− into the cells.

[3] = 1-5 μM concentrations of substrate, YFP-H148Q/I152L fluorescence

Q: Which “Isotope signals from the stomach” value [1] does the source give for O=S(=O)([O-])[O-].[Ba+2] [barium sulfate] here?
A: reduced isotope signals from the stomach

Q: With [125I-].[Na+] [^125I, ^125I sodium iodide] as the molecule, how does the “Accumulation in BXPC-3-hNIS tumor cells” value [2] read?
A: accumulate both isotopes to similar concentrations

Q: What about the “Organ that preferentially accumulates the isotope” value [2] of the same molecule?
A: thyroid preferentially accumulates

Q: For [O]=[99Tc](=[O])(=[O])[O-] [^99mTc, ^99mTc-pertechneate], which “Accumulation in BXPC-3-hNIS tumor cells” value [2] is on record?
A: accumulate both isotopes to similar concentrations

Q: And the “Organ that preferentially accumulates the isotope” value [2]?
A: stomach preferentially accumulates

Q: With [O-][Cl+3]([O-])([O-])O [perchlorate] as the molecule, how does the “Efficiency of concentration in NIS expressing cells compared to iodide anions (less efficiently)” value (NIS expressing cells) read?
A: 10 fold

B1: NIS-93E: mutant human sodium iodide symporter polypeptide, human NIS-93E (SEQ ID NO:1) (protein, listed as Homo sapiens)
chain: MEAVETGERPTFGAWDYGVFALMLLVSTGIGLWVGLARGGQRSAEDFFTGGRRLAALPVGLSLSASFMSAVQVLGVPSEAYRYGLKFLWMCLEQLLNSVLTALLFMPVFYRLGLTSTYEYLEMRFSRAVRLCGTLQYIVATMLYTGIVIYAPALILNQVTGLDIWASLLSTGIICTFYTAVGGMKAVVWTDVFQVVVMLSGFWVVLARGVMLVGGPRQVLTLAQNHSRINLMDFNPDPRSRYTFWTFVVGGTLVWLSMYGVNQAQVQRYVACRTEKQAKLALLINQVGLFLIVSSAACCGIVMFVFYTDCDPLLLGRISAPDQYMPLLVLDIFEDLPGVPGLFLACAYSGTLSTASTSINAMAAVTVEDLIKPRLRSLAPRKLVIISKGLSLIYGSACLTVAALSSLLGGGVLQGSFTVMGVISGPLLGAFILGMFLPACNTPGVLAGLGAGLALSLWVALGATLYPPSEQTMRVLPSSAARCVALSVNASGLLDPALLPANDSSRAPSSGMDASRPALADSFYAISYLYYGALGTLTTVLCGALISCLTGPTKRSTLAPGLLWWDLARQTASVAPKEEVAILDDNLVKGPEELPTGNKKPPGFLPTNEDRLFFLGQKELEGAGSWTPCVGHDGGRDQQETNL
Q: For B1, which “Efficiency of concentrating iodide relative to TcO4” value (Mel624 cells) is on record?
A: concentrate iodide with greater efficiency than TcO4

Q: And the “Concentration of Iodine-125 uptake in tumor cells as compared to non-mutated NIS (NIS WT)” value (Mel624 cells; FIGS. 1A and 1B)?
A: decrease the concentration of Iodine-125 uptake

Q: What about the “Uptake of pertechnetate (Technetium-99m)” value (Mel624 cells) of the same molecule?
A: minimal or no uptake of pertechnetate; also recorded: not pertechnetate

Q: What about the “Uptake of radioiodide (Iodine-125)” value (Mel624 cells) of the same molecule?
A: can uptake radioiodide; also recorded: capable of up-taking radioiodide

Q: What about the “Uptake of pertechnetate (Technetium-99m)” value (Mel624 cells; listed as NIS-G93E) of the same molecule?
A: not Technetium-99m

Q: What about the “Uptake of radioiodide (Iodine-125)” value (Mel624 cells; listed as NIS-G93E) of the same molecule?
A: transport selectively Iodine-125; also recorded: selectively transports Iodine-125

B2: wild-type human NIS polypeptide: wild-type human sodium iodide symporter polypeptide (protein, UniProt Q92911 1-643, looked up)
Sodium/iodide cotransporter: B1 chain with E93G
Q: Which results are given for B2?
A: Uptake of pertechnetate (Technetium-99m) (Mel624 cells): Substantial uptake; Uptake of radioiodide (Iodine-125) (Mel624 cells): Substantial uptake

B3: NIS-Q72N: human NIS with Q72 mutated to N, N-terminal HA-tag (protein, UniProt Q92911 1-643, looked up, variant Q72N)
Sodium/iodide cotransporter: B1 chain with Q72N, E93G
modifications: N-terminal HA tag
Q: With B3 as the molecule, how does the “ClO4- transported into the cells compared to wild-type NIS” value (Hela-YFP-IS cells; [3]) read?
A: more ClO4^−

Q: What about the “Iodide transported into the cells compared to wild-type NIS” value (Hela-YFP-IS cells; [3]) of the same molecule?
A: less iodide

Q: What about the “Substrate transport profile compared to wild-type NIS” value (Hela-YFP-IS cells; I-, ReO4-, BF4-, ClO4-, FIGS. 11 and 12) of the same molecule?
A: altered substrate transport profile
